Tested on: Escherichia coli TOP10
Assay: shrunken log2 fold change of peptide-encoding DNA abundance (4.5 h post-induction vs induction); higher = less antimicrobial activity (less host growth inhibition)
Conditions: time post-induction: 4.5 h; library: site-saturation at positions 5, 18, 19, 20
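Further: peptides expressed intracellularly from a pBAD plasmid library in pooled LB shake-flask culture, induced with 0.3% L-arabinose, DNA abundance read by NGS, three biological replicates, DESeq2 with apeglm shrinkage.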

Point of comparison: RRIRRRPPRLPRPRPRPIGSPRP, “shrunken log2 fold change” value 0.318. Against it:
- RRIRNRPPRLPRPRPRPQHVPRP — lower, 0.000105
- RRIRFRPPRLPRPRPRPYLRPRP — lower, -0.138
- RRIRLRPPRLPRPRPRPAYQPRP — lower, -0.142
- RRIRNRPPRLPRPRPRPGDSPRP — lower, -0.0564
- RRIRHRPPRLPRPRPRPKGHPRP — lower, -0.311
- RRIRKRPPRLPRPRPRPIRHPRP — within 0.2 log units, 0.132
- RRIRTRPPRLPRPRPRPVKPPRP — lower, 0.00237
- RRIRARPPRLPRPRPRPVSGPRP — within 0.2 log units, 0.398
- RRIRRRPPRLPRPRPRPQPQPRP — within 0.2 log units, 0.354
- RRIRCRPPRLPRPRPRPWDMPRP — lower, -0.0934
- RRIRQRPPRLPRPRPRPFQKPRP — lower, -0.173
- RRIRKRPPRLPRPRPRPNIKPRP — lower, -0.284
- RRIRKRPPRLPRPRPRPCVMPRP — lower, 0.0542
- RRIRNRPPRLPRPRPRPRSWPRP — within 0.2 log units, 0.201
- RRIRTRPPRLPRPRPRPQEEPRP — lower, -0.0236
- RRIRARPPRLPRPRPRPPLAPRP — higher, 0.861
- RRIRKRPPRLPRPRPRPPLFPRP — within 0.2 log units, 0.321
- RRIRSRPPRLPRPRPRPMHTPRP — lower, -0.139
- RRIRARPPRLPRPRPRPRQAPRP — within 0.2 log units, 0.414
- RRIRKRPPRLPRPRPRPENWPRP — higher, 0.928
- RRIRGRPPRLPRPRPRPFICPRP — within 0.2 log units, 0.268
- RRIRRRPPRLPRPRPRPIFGPRP — within 0.2 log units, 0.338
- RRIRRRPPRLPRPRPRPNHAPRP — within 0.2 log units, 0.345
- RRIRARPPRLPRPRPRPHEGPRP — within 0.2 log units, 0.148
- RRIRTRPPRLPRPRPRPSQYPRP — lower, -0.142
- RRIRHRPPRLPRPRPRPQLIPRP — lower, 0.00748
- RRIRGRPPRLPRPRPRPCFFPRP — within 0.2 log units, 0.392
- RRIRYRPPRLPRPRPRPTMMPRP — lower, -1.19
- RRIRDRPPRLPRPRPRPIIGPRP — lower, -0.193
- RRIRNRPPRLPRPRPRPLAKPRP — within 0.2 log units, 0.249
- RRIRERPPRLPRPRPRPQRKPRP — lower, 0.0503
- RRIRARPPRLPRPRPRPPWYPRP — within 0.2 log units, 0.139
- RRIRIRPPRLPRPRPRPDAMPRP — lower, -0.112
- RRIRQRPPRLPRPRPRPWFTPRP — lower, -0.356
- RRIRVRPPRLPRPRPRPIIFPRP — lower, -0.286
- RRIRTRPPRLPRPRPRPNRGPRP — lower, -0.0939
- RRIRMRPPRLPRPRPRPPVAPRP — higher, 1.3
- RRIRCRPPRLPRPRPRPSRIPRP — lower, -0.562
- RRIRSRPPRLPRPRPRPINEPRP — lower, -0.249
- RRIRHRPPRLPRPRPRPTENPRP — lower, -0.418
- RRIRNRPPRLPRPRPRPRAQPRP — within 0.2 log units, 0.188
- RRIRARPPRLPRPRPRPLVIPRP — lower, -0.152
- RRIRARPPRLPRPRPRPWMMPRP — lower, -0.248
- RRIRIRPPRLPRPRPRPQGFPRP — lower, -0.129
- RRIRCRPPRLPRPRPRPVSMPRP — lower, -0.0967
- RRIRKRPPRLPRPRPRPCSPPRP — lower, -0.102
- RRIRIRPPRLPRPRPRPSKLPRP — lower, -1.04
- RRIRNRPPRLPRPRPRPSELPRP — lower, -0.135
- RRIRPRPPRLPRPRPRPVPFPRP — lower, -0.303
- RRIRYRPPRLPRPRPRPARVPRP — lower, -0.0653
- RRIRPRPPRLPRPRPRPDTFPRP — lower, -0.0596
- RRIRTRPPRLPRPRPRPIRHPRP — lower, -0.438
- RRIRKRPPRLPRPRPRPEIFPRP — within 0.2 log units, 0.368
- RRIRYRPPRLPRPRPRPRWKPRP — lower, -0.295
- RRIRGRPPRLPRPRPRPADFPRP — within 0.2 log units, 0.149
- RRIRNRPPRLPRPRPRPECIPRP — higher, 2.1
- RRIRFRPPRLPRPRPRPSIEPRP — lower, -0.342
- RRIRQRPPRLPRPRPRPCRSPRP — lower, 0.00709
- RRIRARPPRLPRPRPRPYGAPRP — lower, -0.206
- RRIRERPPRLPRPRPRPDVDPRP — lower, 0.0225
- RRIRTRPPRLPRPRPRPKNPPRP — lower, -0.0748
- RRIRIRPPRLPRPRPRPHRPPRP — lower, -0.166
- RRIRGRPPRLPRPRPRPFASPRP — within 0.2 log units, 0.215
- RRIRERPPRLPRPRPRPMDIPRP — lower, -0.235
- RRIRSRPPRLPRPRPRPIAPPRP — lower, -0.0336
- RRIRCRPPRLPRPRPRPVRNPRP — lower, 0.0515
- RRIRSRPPRLPRPRPRPPIGPRP — within 0.2 log units, 0.297
- RRIRLRPPRLPRPRPRPICFPRP — lower, 0.104
- RRIRKRPPRLPRPRPRPVHEPRP — within 0.2 log units, 0.325
- RRIRVRPPRLPRPRPRPFSVPRP — lower, -0.299
- RRIRRRPPRLPRPRPRPAHKPRP — within 0.2 log units, 0.386
- RRIRRRPPRLPRPRPRPPQSPRP — higher, 0.846
- RRIRPRPPRLPRPRPRPWVPPRP — lower, -0.228
- RRIRIRPPRLPRPRPRPNQQPRP — lower, 0.0352
- RRIRPRPPRLPRPRPRPAIFPRP — lower, -0.0302
- RRIRNRPPRLPRPRPRPDGQPRP — lower, -0.0321
- RRIRHRPPRLPRPRPRPLKTPRP — lower, 0.0116
- RRIRMRPPRLPRPRPRPSNIPRP — lower, -0.227
- RRIRNRPPRLPRPRPRPDMFPRP — lower, -0.00166
- RRIRGRPPRLPRPRPRPAGAPRP — higher, 1.16
- RRIRGRPPRLPRPRPRPKNDPRP — higher, 0.698
- RRIRHRPPRLPRPRPRPVVAPRP — lower, -0.233
- RRIRQRPPRLPRPRPRPPRWPRP — within 0.2 log units, 0.303
- RRIRYRPPRLPRPRPRPISGPRP — lower, 0.0356
- RRIRERPPRLPRPRPRPEPDPRP — lower, 0.0002
- RRIRSRPPRLPRPRPRPAKDPRP — within 0.2 log units, 0.135
- RRIRHRPPRLPRPRPRPNCGPRP — lower, 0.00696
- RRIRTRPPRLPRPRPRPWFGPRP — lower, 0.0864
- RRIRTRPPRLPRPRPRPASYPRP — lower, -0.347
- RRIRFRPPRLPRPRPRPMPWPRP — within 0.2 log units, 0.157
- RRIRMRPPRLPRPRPRPPQFPRP — lower, 0.0882
- RRIRTRPPRLPRPRPRPTYWPRP — lower, -0.00518
- RRIRSRPPRLPRPRPRPQRWPRP — within 0.2 log units, 0.319
- RRIRFRPPRLPRPRPRPGCFPRP — lower, 0.0214
- RRIRSRPPRLPRPRPRPEEHPRP — lower, -0.0107
- RRIRSRPPRLPRPRPRPETNPRP — lower, -0.0626
- RRIRGRPPRLPRPRPRPQATPRP — higher, 1.2
- RRIRIRPPRLPRPRPRPHRVPRP — lower, -0.24
- RRIRTRPPRLPRPRPRPGYEPRP — lower, -0.0417
- RRIRYRPPRLPRPRPRPAVMPRP — lower, -0.231
- RRIRQRPPRLPRPRPRPQEDPRP — lower, -0.0264
- RRIRKRPPRLPRPRPRPSFCPRP — lower, -0.0321
- RRIRYRPPRLPRPRPRPDMSPRP — lower, -0.0894
- RRIRARPPRLPRPRPRPHHEPRP — lower, -0.119
- RRIRWRPPRLPRPRPRPFQNPRP — lower, -0.235
- RRIRNRPPRLPRPRPRPWFRPRP — lower, 0.0475
- RRIRMRPPRLPRPRPRPWRDPRP — higher, 0.518
- RRIRPRPPRLPRPRPRPNMGPRP — lower, -0.202
- RRIRLRPPRLPRPRPRPIFNPRP — lower, -0.221
- RRIRKRPPRLPRPRPRPLCGPRP — within 0.2 log units, 0.367
- RRIRARPPRLPRPRPRPSRPPRP — higher, 0.612
- RRIRARPPRLPRPRPRPYWQPRP — lower, 0.046
- RRIRIRPPRLPRPRPRPAGKPRP — lower, 0.0304
- RRIRYRPPRLPRPRPRPLWGPRP — lower, -0.203
- RRIRLRPPRLPRPRPRPVQVPRP — lower, -0.113
- RRIRTRPPRLPRPRPRPFSHPRP — lower, -0.399
- RRIRDRPPRLPRPRPRPNTKPRP — lower, -0.124
- RRIRFRPPRLPRPRPRPLRHPRP — within 0.2 log units, 0.353
- RRIRTRPPRLPRPRPRPNCWPRP — lower, 0.0359
- RRIRTRPPRLPRPRPRPNPLPRP — lower, -0.216
- RRIRSRPPRLPRPRPRPMIMPRP — lower, -0.0825
- RRIRKRPPRLPRPRPRPWPEPRP — lower, 0.0451
- RRIRCRPPRLPRPRPRPQDCPRP — lower, -0.241
- RRIRHRPPRLPRPRPRPPYAPRP — lower, -0.00375
- RRIRARPPRLPRPRPRPSLDPRP — higher, 0.735
- RRIRSRPPRLPRPRPRPGQKPRP — lower, 0.0237
- RRIRRRPPRLPRPRPRPAYSPRP — lower, 0.0936
- RRIRNRPPRLPRPRPRPWDKPRP — lower, 0.0447
- RRIRGRPPRLPRPRPRPTCMPRP — higher, 0.879
- RRIRKRPPRLPRPRPRPQKLPRP — lower, 0.015
- RRIRQRPPRLPRPRPRPWWAPRP — lower, -0.014
- RRIRLRPPRLPRPRPRPLEQPRP — lower, 0.0155
- RRIRIRPPRLPRPRPRPSKDPRP — lower, -1.02
- RRIRNRPPRLPRPRPRPPHVPRP — within 0.2 log units, 0.147
- RRIRGRPPRLPRPRPRPDESPRP — lower, 0.0316
- RRIRTRPPRLPRPRPRPKLMPRP — lower, -0.102
- RRIRCRPPRLPRPRPRPEILPRP — lower, -0.0141
- RRIRARPPRLPRPRPRPRCCPRP — higher, 0.582
- RRIRARPPRLPRPRPRPKVCPRP — lower, -0.132
- RRIRTRPPRLPRPRPRPPEEPRP — lower, -0.00968
- RRIRERPPRLPRPRPRPYIVPRP — lower, 0.00789
- RRIRRRPPRLPRPRPRPLCGPRP — lower, 0.0348
- RRIRARPPRLPRPRPRPNPRPRP — higher, 0.722
- RRIRGRPPRLPRPRPRPCISPRP — lower, -0.273
- RRIRRRPPRLPRPRPRPNPSPRP — within 0.2 log units, 0.215
- RRIRQRPPRLPRPRPRPQFRPRP — lower, -0.0194
- RRIRRRPPRLPRPRPRPTVSPRP — within 0.2 log units, 0.119
- RRIRGRPPRLPRPRPRPGWDPRP — higher, 1.09
- RRIRSRPPRLPRPRPRPPWNPRP — lower, 0.0621
